Measured values reported in US20260176675.

Biological target: Eosinophil peroxidase (EPX) (Homo sapiens) (UniProt P11678+P11678)
Experiment: cleavage_in_vitro
Settings: 30 min

Eosinophil peroxidase (EPX) (Homo sapiens), sequence (P11678 140-250, chain 1 of 2): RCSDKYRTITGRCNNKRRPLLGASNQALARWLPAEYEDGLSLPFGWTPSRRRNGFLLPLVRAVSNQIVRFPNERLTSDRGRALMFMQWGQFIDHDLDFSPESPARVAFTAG
Eosinophil peroxidase (EPX) (Homo sapiens), sequence (P11678 251-715, chain 2 of 2): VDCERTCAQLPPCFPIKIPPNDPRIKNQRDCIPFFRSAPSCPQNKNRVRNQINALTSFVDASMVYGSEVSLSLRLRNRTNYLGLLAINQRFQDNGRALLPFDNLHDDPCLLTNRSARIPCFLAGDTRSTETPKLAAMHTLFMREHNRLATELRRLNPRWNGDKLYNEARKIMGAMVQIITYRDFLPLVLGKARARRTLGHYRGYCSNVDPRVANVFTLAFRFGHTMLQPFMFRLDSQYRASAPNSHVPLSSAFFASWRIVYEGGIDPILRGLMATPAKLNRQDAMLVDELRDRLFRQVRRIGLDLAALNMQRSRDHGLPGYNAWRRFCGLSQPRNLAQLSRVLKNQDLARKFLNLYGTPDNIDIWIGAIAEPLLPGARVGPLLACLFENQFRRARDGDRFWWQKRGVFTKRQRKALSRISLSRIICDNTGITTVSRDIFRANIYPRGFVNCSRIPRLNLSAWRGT

| Sequence | activity (single riboadenosine cleavage site in FS flanked by dabcyl-dT (5') and fluorescein-dT (3') [13 dabcyl-dT, 14 riboadenosine (R), 15 fluorescein-dT], 50 nM EPX, selection buffer with 15 mM MgCl2, RT) [% cleavage] | Kd (single riboadenosine cleavage site in FS flanked by dabcyl-dT (5') and fluorescein-dT (3') [13 dabcyl-dT, 14 riboadenosine (R), 15 fluorescein-dT], apparent Kd = EPX concentration giving 50% of maximum cleavage, 50 mM HEPES pH 7.5, 150 mM NaCl, 15 mM MgCl2, 0.01% Tween20, RT) [nM] | activity (single riboadenosine cleavage site in FS flanked by dabcyl-dT (5') and fluorescein-dT (3'), EPX-activated RNA-cleaving DNAzyme, selection buffer, RT, no cleavage in buffer alone) [% cleavage] |
| --- | --- | --- | --- |
| CTATGAACTGACTATGACCTCACTACCAAGATGCCATCCTACCAACGGTCGATGGATGAGTAATACAGGCCGGATGGGTACAGTCG [EPDz20M4 ligated to FS (FS-EPDz20M4)] | 18 | 30 | – |
| CTATGAACTGACTATGACCTCACTACCAAGATGCCATCCTACCAACGGTCGATGGATGAGTAATACAGGCCGGATGGGTACAGTCGTAATCTATTCGAGCTCTGAACTCG [EPDz20 ligated to FS] | – | – | 15 |
